The source of these data is publication PMC7073461.

This experiment addresses T7 DNAP (complex of T7 gp5 and Escherichia coli thioredoxin) (bacteriophage T7 | Escherichia coli) (UniProt P00581).
Chain of UniProt P00581 (P00581 whole entry, chain 1 of 2): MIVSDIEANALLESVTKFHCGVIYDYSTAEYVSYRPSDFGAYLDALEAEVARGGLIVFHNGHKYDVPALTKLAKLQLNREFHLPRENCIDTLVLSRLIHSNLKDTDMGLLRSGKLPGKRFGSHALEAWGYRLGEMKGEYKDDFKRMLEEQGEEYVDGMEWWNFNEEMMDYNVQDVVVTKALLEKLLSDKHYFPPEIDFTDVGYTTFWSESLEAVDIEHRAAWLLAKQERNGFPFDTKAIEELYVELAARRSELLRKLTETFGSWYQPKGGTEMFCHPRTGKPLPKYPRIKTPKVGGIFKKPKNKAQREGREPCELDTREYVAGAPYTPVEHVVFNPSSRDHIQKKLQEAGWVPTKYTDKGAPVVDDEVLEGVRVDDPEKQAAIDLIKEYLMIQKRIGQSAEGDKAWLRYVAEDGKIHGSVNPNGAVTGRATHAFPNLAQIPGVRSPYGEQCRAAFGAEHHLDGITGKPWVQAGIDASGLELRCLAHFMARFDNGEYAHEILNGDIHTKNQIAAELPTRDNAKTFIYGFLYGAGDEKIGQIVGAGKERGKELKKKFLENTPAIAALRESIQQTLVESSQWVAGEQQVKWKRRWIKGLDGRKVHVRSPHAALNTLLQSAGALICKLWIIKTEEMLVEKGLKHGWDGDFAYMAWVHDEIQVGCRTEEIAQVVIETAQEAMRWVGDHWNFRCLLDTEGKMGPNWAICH
Chain of UniProt P00581 (P0AA25 whole entry, chain 2 of 2, further chain): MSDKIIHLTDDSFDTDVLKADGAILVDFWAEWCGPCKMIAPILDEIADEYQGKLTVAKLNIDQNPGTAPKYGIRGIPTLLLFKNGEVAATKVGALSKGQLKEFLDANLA

Consider “C-tail mutant of T7 gp4A′ (T7 HelicaseΔC17) (enzyme)”, for which the Pol/Exo ratio (nucleotides incorporated per nucleotide excised) during leading strand synthesis on minicircle DNA, 150 μM dVTPs and 500 μM dTTP; 50–60% lower than with the WT T7 helicase turned out to be 5.7.
